How the values were obtained:
Test in all cases: SEC
α-synuclein A30P = α-synuclein A30P (UniProt P37840)
α-synuclein A53T = α-synuclein A53T (UniProt P37840)
α-synuclein E46K = α-synuclein E46K (UniProt P37840)

Work on “α-synuclein A30P (from UniProt P37840 1-140) (natural protein)” yielded a fraction of oligomers (α-synuclein A30P) of 71.6%.

With “α-synuclein A53T (from UniProt P37840 1-140) (natural protein)” the fraction of oligomers (α-synuclein A53T) was 87.8%.

In the case of “α-synuclein E46K (from UniProt P37840 1-140) (natural protein)”, the fraction of oligomers (α-synuclein E46K) is reported as 92.1%.
